Target: VEGF-A (UniProt P15692 1-395)
Assay: SPR; unpublished data of the authors; format and conditions not told
Settings: both partners purified

Kd: 0.429 nM
B1: Conbercept (Fc fusion)
chain: GRPFVEMYSEIPEIIHMTEGRELVIPCRVTSPNITVTLKKFPLDTLIPDGKRIIWDSRKGFIISNATYKEIGLLTCEATVNGHLYKTNYLTHRQTNTIIDVVLSPSHGIELSVGEKLVLNCTARTELNVGIDFNWEYPSSKHQHKKLVNRDLKTQSGSEMKKFLSTLTIDGVTRSDQGLYTCAASSGLMTKKNSTFVRVHEKPFVAFGSGMESLVEATVGERVRIPAKYLGYPPPEIKWYKNGIPLESNHTIKAGHVLTIMEVSERDTGNYTVILTNPISKEKQSHVVSLVVYVPP
modifications: seven N-glycosylation sites, all occupied (the N in the tryptic peptides 29-39 VTSPNITVTLK, 60-69 GFIISNATYK, 117-124 LVLNCTAR, 193-198 NSTFVR, 242-253 NGIPLESNHTIK, 267-281 DTGNYTVILTNPISK, 372-380 …); two inter-chain disulfide bonds at the Fc hinge
